Biological target: GS-nsp5 C145A (GS added nsp5 construct with the active site mutation C145A) (SARS-CoV-2)
Assay: NMR, 2D [15N,1H]-BEST-TROSY spectra compared

GS-nsp5 C145A (GS added nsp5 construct with the active site mutation C145A) (enzyme)
stoichiometry N: 2

Source: paper PMC8141814 (Frontiers in Molecular Biosciences, 2021)
